The chains are these.
B1: library; a variant is named by its letters at N, in order (parent)
chain: GCUGUCACCGAGAAACUGUGAAGUAUAUCUUAAACCUGGGCACUUAAAAGAUAUAUGGAGUUAGUAGUGCAACCUGCUCGGUCUGAUGAGUCCNNNNNNGGACGAAACAGC

± gives the standard deviation of the averaged measurements.

Variants of B1 are the subject of data set [1]. As to the kind of experiment: normalized RNA/DNA level without ligand (relative to sTRSVctl = 100) (log10 (% of sTRSVctl)); HEK293T; ligand: cyclic di-GMP (c-di-GMP-II aptamer); higher = less ribozyme self-cleavage, higher mRNA level. The settings on record: reporter: mCherry (pCS4076), ligand present: no. The method in brief: (§1)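 Only sequences with at least 100 DNA reads were analyzed, from HEK293T cells transfected with 4 µg per 6-well well of ribozyme switch library plasmids 72 h before RNA extraction with EDTA. Any ligand was added 1 h before transfection. RNA level was defined as RNA over DNA reads, normalized to a spiked-in non-cleaving sequence or to the top sequences, then scaled and log-transformed. The top set was 25 sequences, and the scaling was ×100 followed by log10.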

Variants of B1 are the subject of data set [2]. As to the kind of experiment: normalized RNA/DNA level with ligand (relative to sTRSVctl = 100) (log10 (% of sTRSVctl)); HEK293T; ligand: cyclic di-GMP (c-di-GMP-II aptamer); ligand concentration (+) RNA-Seq: 1 mM; higher = less ribozyme self-cleavage, higher mRNA level. The conditions noted are these: reporter: mCherry (pCS4076), ligand present: yes. The method in brief: as §1

As for UGGAUU, in data set [1], the “normalized RNA/DNA level without ligand (log10)” value was 1.669 ± 0.0092. Moreover, the “normalized RNA/DNA level with ligand (log10)” value in data set [2] worked out at 1.81 ± 0.13.
On the same counts, the results for UGGAUC are 1.699 ± 0.0067 and 1.88 ± 0.097.
UGGAUA: the “normalized RNA/DNA level without ligand (log10)” value in data set [1] came out at 1.65 ± 0.043. Moreover, the “normalized RNA/DNA level with ligand (log10)” value in data set [2] is 1.8 ± 0.11.
On the same counts, the results for UGGAUG are 1.62 ± 0.027 and 1.82 ± 0.11.
On the same counts, the results for UGCCAU are 1.694 ± 0.0071 and 1.81 ± 0.11.
In the same order, the values of UGCCAG are 1.7634 ± 0.0015 and 1.87 ± 0.087.
For the variant UGCCAC, the “normalized RNA/DNA level without ligand (log10)” value in data set [1] stood at 1.77 ± 0.056. The “normalized RNA/DNA level with ligand (log10)” value in data set [2] amounted to 1.88 ± 0.15.
UGCCAA: the “normalized RNA/DNA level without ligand (log10)” value in data set [1] turned out to be 1.689 ± 0.0043. Also, the “normalized RNA/DNA level with ligand (log10)” value in data set [2] turned out to be 1.83 ± 0.12.
On the same counts, the results for CGCCAG are 1.76 ± 0.075 and 1.9 ± 0.072.
On the same counts, the results for AGCUUU are 1.712 ± 0.0062 and 1.85 ± 0.12.
On the same counts, the results for AGCUUC are 1.77 ± 0.026 and 1.9 ± 0.059.
For AGCUUA, the “normalized RNA/DNA level without ligand (log10)” value in data set [1] is 1.57 ± 0.055. Besides, in data set [2], the “normalized RNA/DNA level with ligand (log10)” value worked out at 1.76 ± 0.11.
For CGCAUU, the “normalized RNA/DNA level without ligand (log10)” value in data set [1] is 1.47 ± 0.073. The “normalized RNA/DNA level with ligand (log10)” value in data set [2] was determined as 1.61 ± 0.11.
On the same counts, the results for CGCAUC are 1.66 ± 0.037 and 1.83 ± 0.11.
With AGCAUU, the “normalized RNA/DNA level without ligand (log10)” value in data set [1] turned out to be 1.66 ± 0.0074. In addition, the “normalized RNA/DNA level with ligand (log10)” value in data set [2] turned out to be 1.84 ± 0.073.
In the same order, the values of AGCAUC are 1.8 ± 0.021 and 1.88 ± 0.12.
On the same counts, the results for AGCAUA are 1.52 ± 0.083 and 1.73 ± 0.074.
On the same counts, the results for UGCUCU are 1.77 ± 0.018 and 1.92 ± 0.05.
For the variant UGCUCA, the “normalized RNA/DNA level without ligand (log10)” value in data set [1] was 1.762 ± 0.015. In data set [2], the “normalized RNA/DNA level with ligand (log10)” value is 1.85 ± 0.09.
For the variant UGCUCC, the “normalized RNA/DNA level without ligand (log10)” value in data set [1] came to 1.858 ± 0.016. Besides, in data set [2], the “normalized RNA/DNA level with ligand (log10)” value was determined as 1.93 ± 0.17.
As to UGCUCG, the “normalized RNA/DNA level without ligand (log10)” value in data set [1] came out at 1.77 ± 0.059. In addition, the “normalized RNA/DNA level with ligand (log10)” value in data set [2] is 1.89 ± 0.16.
On to AGCGAU, for which the “normalized RNA/DNA level without ligand (log10)” value in data set [1] amounted to 1.71 ± 0.015. Moreover, the “normalized RNA/DNA level with ligand (log10)” value in data set [2] turned out to be 1.87 ± 0.1.
In the same order, the values of AGCGAC are 1.65 ± 0.052 and 1.81 ± 0.077.
In the same order, the values of AGCGAG are 1.57 ± 0.13 and 1.74 ± 0.042.
On the same counts, the results for UGGCAC are 1.72 ± 0.043 and 1.86 ± 0.024.
Turning to UGGCAA, the “normalized RNA/DNA level without ligand (log10)” value in data set [1] was 1.64 ± 0.028. Further, in data set [2], the “normalized RNA/DNA level with ligand (log10)” value was found to be 1.8 ± 0.1.
In the same order, the values of UGGCAG are 1.847 ± 0.0028 and 1.93 ± 0.063.
On the same counts, the results for UGCUAG are 1.71 ± 0.031 and 1.9 ± 0.048.
On the same counts, the results for UGCUAU are 1.676 ± 0.0088 and 1.83 ± 0.13.

Values taken from the supplement of paper PMC6757056.
